Earlier results in paper PMC4826273.

Target: Dll-1 (Homo sapiens) (UniProt O00548)
Experiment: surface plasmon resonance

Chain of UniProt O00548 (O00548 18-545): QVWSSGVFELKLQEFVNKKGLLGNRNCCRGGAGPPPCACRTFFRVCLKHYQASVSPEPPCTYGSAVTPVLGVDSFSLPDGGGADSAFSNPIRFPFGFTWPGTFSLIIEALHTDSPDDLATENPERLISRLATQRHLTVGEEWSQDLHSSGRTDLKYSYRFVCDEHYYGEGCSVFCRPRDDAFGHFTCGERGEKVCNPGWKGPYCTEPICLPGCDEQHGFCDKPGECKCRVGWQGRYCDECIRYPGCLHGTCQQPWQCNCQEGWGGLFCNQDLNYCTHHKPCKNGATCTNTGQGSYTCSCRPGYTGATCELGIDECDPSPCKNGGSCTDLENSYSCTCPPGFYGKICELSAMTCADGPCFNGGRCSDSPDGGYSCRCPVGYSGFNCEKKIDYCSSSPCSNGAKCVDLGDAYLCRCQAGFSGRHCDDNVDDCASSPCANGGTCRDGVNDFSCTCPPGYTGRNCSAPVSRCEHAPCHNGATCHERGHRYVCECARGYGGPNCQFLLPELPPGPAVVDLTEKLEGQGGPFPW

Notch1 (from UniProt P46531)
Kd: 130 µM
